From the supplement of paper PMC10724198
± gives the standard deviation of the averaged measurements.

tested on: Saccharomyces cerevisiae; assay: protein stability index of tFT-peptide fusion (C-terminal peptide) (PSI (0-1 scale)); higher = more stable (slower turnover); conditions: genetic background: wild type; temperature: 30 C
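Also: PSI is a weighted mean of sequencing reads over stability bins, variants kept only with over 10 reads, mCherry proximal and sfGFP distal, peptide attached via GGGS linker.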

Point of comparison: LSDLDSMVMIVP, protein stability index 0.869 ± 0.16. Against it:
- PVSCMAWGRLVL — lower, 0.667 ± 0.041
- VCSEARRKSVAL — lower, 0.673 ± 0.02
- SPPSPGLDPVCP — within error, 0.66 ± 0.089
- SRFPPYALAHRP — within error, 0.716 ± 0.2
- APWSVSAGCFLF — within error, 0.687 ± 0.036
- PRLGFFPFPSGP — within error, 0.709 ± 0.03
- DSSLDWGREARA — within error, 0.649 ± 0.075
- GVVWMSGGGWWG — within error, 0.761 ± 0.03
- GKAGGNREGTGT — within error, 0.689 ± 0.048
- SSCWRAWAVNGL — within error, 0.677 ± 0.063
- PNGSRPAHGVKN — lower, 0.646 ± 0.032
- QCSVFSSPPRAL — within error, 0.723 ± 0.1
- KHCFDIEILRYQ — lower, 0.664 ± 0.016
- RGHTTYCGPALI — within error, 0.697 ± 0.08
- TAPPPSQTPPRT — lower, 0.684 ± 0.0076
- SPPLPPPPPFPL — within error, 0.74 ± 0.053
- SIPAPLAPLWGL — lower, 0.627 ± 0.055
- PLVVPPSPRPPP — within error, 0.735 ± 0.063
- SVGGVGVEIQSV — within error, 0.629 ± 0.15
- ENRGIEITGKRS — within error, 0.727 ± 0.022
- YLGYADDLLIML — within error, 0.707 ± 0.018
- RMATGNPAPHPP — within error, 0.735 ± 0.04
- QNLYLSFLRIKL — lower, 0.624 ± 0.0088
- TVTPPAPCPPAG — within error, 0.709 ± 0.032
- TGNSPSRTGNGI — lower, 0.647 ± 0.018
- YAGDPEAAAEWG — within error, 0.68 ± 0.052
- PGPPTPPPPLYP — within error, 0.706 ± 0.012
- VRRSGMNIVVLP — lower, 0.63872 ± 0.00027
- PPYPPPHASPAP — within error, 0.693 ± 0.039
- RSQRRWCSKIRV — within error, 0.625 ± 0.095
- GCSLWCPDFCLC — lower, 0.665 ± 0.0097
- PAPPLPPPPSPY — within error, 0.72 ± 0.11
- PRPAQDAEPIQP — within error, 0.646 ± 0.098
- GVFEGLVYGGLC — within error, 0.719 ± 0.012
- VIPREPSEPHTA — lower, 0.639 ± 0.021
- PPALSLPAPLLP — lower, 0.6592 ± 0.0039
- KTGLMRGHEVAS — lower, 0.673 ± 0.03
- DSLSVSLSLVRG — within error, 0.696 ± 0.028
- PSVPRLPGLSLR — lower, 0.629 ± 0.053
- GALPPPPARGDL — within error, 0.768 ± 0.024
- YMTWRGCGWSGG — within error, 0.697 ± 0.1
- IRPFSPAPPRYP — within error, 0.722 ± 0.075
- PFAPFIHNFGCT — within error, 0.713 ± 0.023
- VACFLCTPKWFE — within error, 0.69 ± 0.057
- HLIRRGGSQTWT — within error, 0.713 ± 0.049
- EGLNASGGGSGG — within error, 0.644 ± 0.07
- VTAIVLSVLSGC — lower, 0.556 ± 0.022
- EFANKGIKINTA — lower, 0.625 ± 0.019
- TPLSPPALPPPS — within error, 0.659 ± 0.074
- LHSPPLPFTPSP — lower, 0.613 ± 0.041
- GGDGGGERGEGK — within error, 0.701 ± 0.027
- FGGTAVAGLFDL — within error, 0.725 ± 0.061
- IVKFVRAIGRKK — lower, 0.664 ± 0.028
- RARCPGGQIKLH — within error, 0.714 ± 0.2
- SRTLPHRTAPHC — within error, 0.758 ± 0.054
- PRGLGYHGALVL — lower, 0.571
- KIENQKKRLQRT — within error, 0.708 ± 0.028
- TWYYRYSCCQLP — within error, 0.696 ± 0.014
- PRRSNPQPTHIR — within error, 0.708 ± 0.038
- SLTLAHPGVDLA — within error, 0.709 ± 0.021
- VLILDVSFPRCD — within error, 0.766 ± 0.18
- VRGTGRQLNKSM — within error, 0.662 ± 0.054
- LGFCRLVFGVVG — lower, 0.522 ± 0.01
- SHAATKGSLFNV — lower, 0.631 ± 0.0074
- ASLGPCLPLSLN — within error, 0.695 ± 0.03
- GSFPRLPPSKSF — within error, 0.724 ± 0.14
- LGKSGLTILCRD — lower, 0.5954 ± 0.003
- KNRKSYTINSRK — within error, 0.656 ± 0.055
- CYLSVGVASWNS — lower, 0.6816 ± 0.0026
- VVCLGGVVLPRV — lower, 0.65788 ± 0.00012
- PPPPPPPTSRPP — lower, 0.644 ± 0.03
- GRRDVTFGTAFF — within error, 0.753 ± 0.052
- APLSRPLRLPHP — within error, 0.692 ± 0.022
- QLRPPHRTLHLP — within error, 0.698 ± 0.028
- EWCVRKATRDIE — lower, 0.659 ± 0.014
- VYSAGRAVGLAG — lower, 0.673 ± 0.035
- VGFGLIVWSSGW — lower, 0.529 ± 0.0077
- TQSSADCFTLDA — within error, 0.719 ± 0.052
- LKNFGRGAMVRT — lower, 0.688 ± 0.013
- WAPPPPYSPFSL — within error, 0.704 ± 0.0098
- AVVVDWLAQVLH — within error, 0.757 ± 0.068
- ILCPIKHKRKGS — within error, 0.703 ± 0.064
- GKCTGSAEMRPQ — lower, 0.627 ± 0.079
- PIRPQSSVSLKQ — lower, 0.64958 ± 0.00064
- GSRGHLGRGGPG — within error, 0.727 ± 0.017
- LSCRGVTIRYCW — lower, 0.683 ± 0.012
- PSPPPPPRSFLH — within error, 0.649 ± 0.066
- GASSSPAQGCSL — within error, 0.691 ± 0.048
- LYPDTDSLTPLP — within error, 0.725 ± 0.05
- SRVERRRTSREG — within error, 0.672 ± 0.083
- MEAERRKEGENS — within error, 0.673 ± 0.072
- PPRQPLSLLLPL — lower, 0.6468 ± 0.0016
- ALPGHFCVSFLP — within error, 0.752 ± 0.033
- PESPLFPPLLPS — lower, 0.6599 ± 0.0018
- RSQIHEILLYLF — lower, 0.492 ± 0.082
- PLLLHHPPPRVP — lower, 0.666 ± 0.029
- TAATLVYKQNQK — within error, 0.66 ± 0.12
- VPQREWGGVRLG — lower, 0.675 ± 0.017
- QESPERRGVPPF — within error, 0.674 ± 0.047
- PISTHYGSAVFM — within error, 0.692 ± 0.029
